This data set is described as follows: protease stability score; higher = more stable; yeast display proteolysis, trypsin and chymotrypsin.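 Further: log10 excess protease needed over predicted unfolded state with 0 meaning unfolded.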

In turn, “DDEAQRIVHKFVRAMQTNDPDSVEKLLDKNARIEYGDKTIHGNSQAREEVEKTKNQARFQIDSYRVQEEPGRAVLDQKVTFRINGQPDQMRHTLYFDFHNGRVTNLHMHIDEDDYQRHRG” had a protease stability score of -0.019.

In turn, “DDEAQRVFEDWLENVKKGDEDHAVQLADPNADFVIGDKTYHGREQLKREIKHERDRLRREMRIQDFDDQPPRIDIKFEFTNQHNGKPSSDTAVMKLQMHNGDVQALVVTQHR” had a protease stability score of -0.302. Sequence “DDEARKRIRTYWELYNQGNESKLEEMVDKDVRFEVGDKTIEGRRQVSTQLHREVREADVRVDIESIHVTGNKVDVEFRHSRDHNGQPETDQQRAEFNMDNGKIQSVVHRKDG” displayed a protease stability score of -0.204.

Turning to “DDEARNLVSEWLKAVETGDPDRVSQNMDPNASYHIGEWNVTGRETVNKLLDDVKTRLRVQFNIQHLDANGDTVDLRAMVLYEHNGKPDTKVYHFKFQQHNGKLVDVRATEDG”, the protease stability score came to 0.736. In turn, “DDEARRVAETVMTAVSRGDEEKVKEMFDPNARFRVGNKEISGRENYADWLRKLQEHARVDVSDVKAKDQGDEVTAKVRFVLSVDGTPHTMNVDVHFSVDNGKIIDYKQRFDEDDLRRILK” registered a protease stability score of -0.155. As to “DDEAVRAAKRAFEAWIENDPEKMKHQVDENAHLHYGDKEVHGREDANRQVHEDERQMRIELRSVTFQHHNGRAKIDMKYVLDHNGKPETRKFDATAEARNGKITKMSIDVHQ”, the protease stability score is -0.077. Next, “DDEAVRAMKRWMDALKTGDPDHLKNNIDPNANIDVGDKRVHGREQIMTMVEKELHEIKITITSINFEDHGDKAVVIINYIRDHNGRPQSNRATLEAEVHNGRIKELKMKDDK”: 0.468; “DDEAVRQIQTMVRNQNTGDPDKVAEQMDPNVQVDYGDTNLQGREHVHHWLEELKRQARFELTSVKAESQGDNIHVQVDRKVNVNGQPRRDEMHFEVRVHNGRIRSVDIQFDPDKYRQIMS”: -0.28. The sequence “DDEDADKAQRILETGNPDEMDKLLDKDVRVVVGDKEYKGREQVSEFFRRLLEQVDTITFLSVEIHNGTVQARVLVNVNGHNVDVVFQFVVHNGKLKHAKVEARNEEEQKKLDRALS” showed a protease stability score of 1.55. Sequence “DDEDADRMVKLIRTNDPETFARQMDPNARVEVGDKKVHGREEALKLLSELYNQADHFQVKSISRHNGRVTVDAILVVNGRTMRARIEVVVHNGRVKSARVKFTNPEDQKQMRRNVQ” gave a protease stability score of -0.185.

Turning to “DDEDAHRVADDANKALERGDERRLKELFDKDVRLHYGDKHVRGREEFEDWVQEWLRTVDKIRVEDYKVHDGVVRIRIRVDINGKDVSQTIDLDVKNGTIVNVVIKDN”, the protease stability score came to 1.43. Next, “DDEDAKHLMQVLQNGDEDRFAELVDENAHQTIGDKTIHGRSEFDRIHEKLKKRIDNFRVNDYRIDNGSVNADVSANVNGQKIRFKYQAHVTNGHIKEMRFQATDPRQEDKWHEMQK”: -0.031; “DDEDAKRWEKFLKLQQEGNDSEMRKLVDENASFDVGNKHYSGMTTMAHELVRHAHDIRLEYKDVKIDVSGEQIYVTMEVTVNINGQPVRYTNVLEVTMHNGKVKTATNRIPEDVEREIRQ”: 0.034. The figure for “DDEDDKRLADEFNTAVKQGDEDQLKNLMDEDATAEIGDKQLTGRENAAKHLVTLARHADHIQVNSVRVHDGRIRIDMRMIFNGQDHHYDIKIEVHNGRIKRMTVRNK” is 1.6. Next, “DDEDEHKFATRMAEILHTGDPDRFQEQVDENVEARYGDKEYHGDEQAKTAFKHVVERVDTVEIKHMDAKNGKVSVHFVLDYDGEKQHVTLNVELHNGKAQRVEFQTQ”: 0.144; “DDEDFKKFKELVETGDWSSLRKQADKNVRQRVGDKQIHGKEEFSRLLKHLQDQIDHVEIKHMQDEPNHLRVDVVWNINGVRVRFQYIVELSNGHIKYIKIDVTDENKLTKLQDLLQ”: 0.491; “DDEDKAREFQRHLLRLVRTNNEKDLHNMADPNVKVVIGDKVYSGRDDVAKAHAELRRNVDHINLEIKSVSHKNGRMKVEAEVIYDHNGKKDKRTMTAVIDRHNGKNVLVHMNIQ”: 1.65. In the case of “DDEDNKRKAEEFVRLMHTGDEERIKELFDPNVKAVIGDKEYHGRDTVADWARRLREQADHFDVHRMTAQGDRVHVDMFVTHNGRTKRVVIVLKYHNGRVEEIKVQDG”, the protease stability score was 2.28. Next, “DDEDQKSTAEEIAKALQTGDKDKVTELFDEDARLKIGDTEFHGREQVSRAVHEIKTRVDHMELKDMEFTGDHVRIVYIANVDGHHATFVAHVVLNNGTAKSMSLSVRDERDKESVDK”: 0.276.
